Assay results from patent US20260242735A1 (UNIVERSIT T BASEL, published 2026).

Assays:
[1] = target: human CD33 V25L (human, UniProt P20138 18-364); assay: flow cytometry, mutant on cells, IgG
Experimental: An alanine scan on human CD33 was performed to the determine the residues on CD33 that are involved in binding to the antibodies investigated. […] Briefly, a mutation library of CD33 was created by high-throughput, site-directed mutagenesis. Each residue was individually mutated to alanine, with alanine codons mutated to serine. The mutant library was arrayed in 384-well microplates and transiently transfected into HEK293-T. Following transfection, cells were incubated with the indicated antibodies (IgG or Fab) at concentrations pre-determined using an independent immunofluorescence titration curve on wild type CD33. […] Binding of each antibody to each mutant clone was determined in duplicates. For each point, background fluorescence was subtracted from the raw data, which were then normalized to antibody reactivity with wild type CD33.
Antibodies were screened for binding to the human CD33 variants in IgG format. […] For each mutation, background fluorescence was subtracted from the raw data, which were then normalized to antibody reactivity with wild-type CD33.

[2] = target: human CD33 W22P (human, UniProt P20138 18-364); assay: flow cytometry, transfected cells
[3] = target: human CD33 W22E (human, UniProt P20138 18-364); assay: flow cytometry, transfected cells
[4] = target: human CD33 W22R (human, UniProt P20138 18-364); assay: flow cytometry, transfected cells
Chain of human CD33 W22R (P20138 18-364 W22R limits assumed): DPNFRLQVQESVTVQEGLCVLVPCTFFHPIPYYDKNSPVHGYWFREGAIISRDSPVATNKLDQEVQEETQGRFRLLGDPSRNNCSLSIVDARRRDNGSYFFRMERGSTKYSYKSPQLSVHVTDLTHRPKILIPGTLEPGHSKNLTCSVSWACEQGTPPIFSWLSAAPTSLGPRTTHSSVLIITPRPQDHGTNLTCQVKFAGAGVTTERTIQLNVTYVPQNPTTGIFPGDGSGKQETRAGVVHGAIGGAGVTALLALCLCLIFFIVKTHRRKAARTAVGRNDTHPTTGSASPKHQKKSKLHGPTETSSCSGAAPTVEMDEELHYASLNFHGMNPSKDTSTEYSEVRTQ

[5] = target: human CD33 W22T (human, UniProt P20138 18-364); assay: flow cytometry, transfected cells
Chain of human CD33 W22T (P20138 18-364 W22T limits assumed): as the sequence (P20138 18-364 W22R limits assumed) above, with R5T counted along it

[6] = target: human CD33 G304A (human, UniProt P20138 18-364); assay: alanine scan, flow cytometry, HEK293-T;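 also: antibody binding to each alanine-substituted CD33 mutant expressed transiently in HEK293-T, read as fluorescence minus background, mean of duplicates, relative to wild-type CD33 set as 100%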
Chain of human CD33 G304A (P20138 18-364 G304A limits assumed): as the sequence (P20138 18-364 W22R limits assumed) above, with R5W, G287A counted along it

[7] = target: human CD33 G295A (human, UniProt P20138 18-364); assay: alanine scan, flow cytometry, HEK293-T;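 also: antibody binding to each alanine-substituted CD33 mutant expressed transiently in HEK293-T, read as fluorescence minus background, mean of duplicates, relative to wild-type CD33 set as 100%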
Chain of human CD33 G295A (P20138 18-364 G295A limits assumed): as the sequence (P20138 18-364 W22R limits assumed) above, with R5W, G278A counted along it

[8] = target: human CD33 G266A (human, UniProt P20138 18-364); assay: alanine scan, flow cytometry, HEK293-T;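 also: antibody binding to each alanine-substituted CD33 mutant expressed transiently in HEK293-T, read as fluorescence minus background, mean of duplicates, relative to wild-type CD33 set as 100%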
Chain of human CD33 G266A (P20138 18-364 G266A limits assumed): as the sequence (P20138 18-364 W22R limits assumed) above, with R5W, G249A counted along it

[9] = target: human CD33 V294A (human, UniProt P20138 18-364); assay: alanine scan, flow cytometry, HEK293-T;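 also: antibody binding to each alanine-substituted CD33 mutant expressed transiently in HEK293-T, read as fluorescence minus background, mean of duplicates, relative to wild-type CD33 set as 100%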
Chain of human CD33 V294A (P20138 18-364 V294A limits assumed): as the sequence (P20138 18-364 W22R limits assumed) above, with R5W, V277A counted along it

[10] = target: human CD33 L316A (human, UniProt P20138 18-364); assay: alanine scan, flow cytometry, HEK293-T
Chain of human CD33 L316A (P20138 18-364 L316A limits assumed): as the sequence (P20138 18-364 W22R limits assumed) above, with R5W, L299A counted along it

[11] = target: human CD33 V282A (human, UniProt P20138 18-364); assay: alanine scan, flow cytometry, HEK293-T
Chain of human CD33 V282A (P20138 18-364 V282A limits assumed): as the sequence (P20138 18-364 W22R limits assumed) above, with R5W, V265A counted along it

[12] = target: human CD33 R296A (human, UniProt P20138 18-364); assay: alanine scan, flow cytometry, HEK293-T
Chain of human CD33 R296A (P20138 18-364 R296A limits assumed): as the sequence (P20138 18-364 W22R limits assumed) above, with R5W, R279A counted along it

[13] = target: human CD33 S305A (human, UniProt P20138 18-364); assay: alanine scan, flow cytometry, HEK293-T
Chain of human CD33 S305A (P20138 18-364 S305A limits assumed): as the sequence (P20138 18-364 W22R limits assumed) above, with R5W, S288A counted along it

[14] = target: human CD33 Q251A (human, UniProt P20138 18-364); assay: alanine scan, flow cytometry, HEK293-T
Chain of human CD33 Q251A (P20138 18-364 Q251A limits assumed): as the sequence (P20138 18-364 W22R limits assumed) above, with R5W, Q234A counted along it

[15] = target: human CD33 A293S (human, UniProt P20138 18-364); assay: alanine scan, flow cytometry, HEK293-T
Chain of human CD33 A293S (P20138 18-364 A293S limits assumed): as the sequence (P20138 18-364 W22R limits assumed) above, with R5W, A276S counted along it

[16] = target: human CD33 T268A (human, UniProt P20138 18-364); assay: alanine scan, flow cytometry, HEK293-T
Chain of human CD33 T268A (P20138 18-364 T268A limits assumed): as the sequence (P20138 18-364 W22R limits assumed) above, with R5W, T251A counted along it

[17] = target: human CD33 L271A (human, UniProt P20138 18-364); assay: alanine scan, flow cytometry, HEK293-T
Chain of human CD33 L271A (P20138 18-364 L271A limits assumed): as the sequence (P20138 18-364 W22R limits assumed) above, with R5W, L254A counted along it

[18] = target: human CD33 R286A (human, UniProt P20138 18-364); assay: alanine scan, flow cytometry, HEK293-T
Chain of human CD33 R286A (P20138 18-364 R286A limits assumed): as the sequence (P20138 18-364 W22R limits assumed) above, with R5W, R269A counted along it

[19] = target: human CD33 I262A (human, UniProt P20138 18-364); assay: alanine scan, flow cytometry, HEK293-T
Chain of human CD33 I262A (P20138 18-364 I262A limits assumed): as the sequence (P20138 18-364 W22R limits assumed) above, with R5W, I245A counted along it

[20] = target: human CD33 A306S (human, UniProt P20138 18-364); assay: alanine scan, flow cytometry, HEK293-T
Chain of human CD33 A306S (P20138 18-364 A306S limits assumed): as the sequence (P20138 18-364 W22R limits assumed) above, with R5W, A289S counted along it

[21] = target: human CD33 K309A (human, UniProt P20138 18-364); assay: alanine scan, flow cytometry, HEK293-T
Chain of human CD33 K309A (P20138 18-364 K309A limits assumed): as the sequence (P20138 18-364 W22R limits assumed) above, with R5W, K292A counted along it

Chain of human CD33 V25L (P20138 18-364 V25L limits assumed): as the sequence (P20138 18-364 W22R limits assumed) above, with R5W, V8L counted along it
Chain of human CD33 W22E (P20138 18-364 W22E limits assumed): as the sequence (P20138 18-364 W22R limits assumed) above, with R5E counted along it
Chain of human CD33 W22P (P20138 18-364 W22P limits assumed): as the sequence (P20138 18-364 W22R limits assumed) above, with R5P counted along it

B1: Refmab #2 (antibody, human IgG1, V domains shown)
VH: QVQLVQSGAEVKKPGSSVKVSCKASGGTFSDYAISWVRQAPGQGLEWMGRIIPILGVADYAQKFQGRVTITADKSTRTAYMELSSLRSEDTAVYYCARNWADAFDIWGQGTMVTVSS
VL: DIQLTQSPSSLSASVGDRVTITCRASQGISSVLAWYQQKPGKAPKLLIYDASSLESGVPSRFSGSGSGTDFTLTISSLQPEDFATYYCQQFDSSITFGQGTKLEIK
notes: Tested in IgG format; human IgG1 Fc silent (PG-LALA)
B1 was tested, and the “Mean % WT Binding” value [1] was 109 % WT binding.

B2: Refmab #6 (antibody, human IgG1, V domains shown)
VH: QVQLQQPGAEVVKPGASVKMSCKASGYTFTSYYIHWIKQTPGQGLEWVGVIYPGNDDISYNQKFQGKATLTADKSSTTAYMQLSSLTSEDSAVYYCAREVRLRYFDVWGQGTTVTVSS
VL: EIVLTQSPGSLAVSPGERVTMSCKSSQSVFFSSSQKNYLAWYQQIPGQSPRLLIYWASTRESGVPDRFTGSGSGTDFTLTISSVQPEDLAIYYCHQYLSSRTFGQGTKLEIK
B2: no binding (tested: below 20%) [2]; no binding (tested: below 20%) [3]; no binding (tested: below 20%) [4]. B2: no binding (tested: below 20%) [5].

B3: Refmab #1 (antibody, human IgG1, V domains shown)
VH: EVQLVQSGAEVKKPGSSVKVSCKASGYTITDSNIHWVRQAPGQSLEWIGYIYPYNGGTDYNQKFKNRATLTVDNPTNTAYMELSSLRSEDTAFYYCVNGNPWLAYWGQGTLVTVSS
VL: DIQLTQSPSTLSASVGDRVTITCRASESLDNYGIRFLTWFQQKPGKAPKLLMYAASNQGSGVPSRFSGSGSGTEFTLTISSLQPDDFATYYCQQTKEVPWSFGQGTKVEVK
notes: Tested in IgG format; human IgG1 (Absolute Antibody hP67.6, Cat. No. Ab00283-10.0); also called hP67.6
B3 was tested, and the “Mean % WT Binding” value [1] was 99.2 % WT binding.

B4: Refmab #1 (antibody, human IgG1, V domains shown)
VH: EVQLVQSGAEVKKPGSSVKVSCKASGYTITDSNIHWVRQAPGQSLEWIGYIYPYNGGTDYNQKFKNRATLTVDNPTNTAYMELSSLRSEDTAFYYCVNGNPWLAYWGQGTLVTVSS
VL: DIQLTQSPSTLSASVGDRVTITCRASESLDNYGIRFLTWFQQKPGKAPKLLMYAASNQGSGVPSRFSGSGSGTEFTLTISSLQPDDFATYYCQQTKEVPWSFGQGTKVEVK
notes: also called hP67.6; Absolute Antibody Cat. No. Ab00283-10.0
B4: no binding (tested: below 20%) [2]; no binding (tested: below 20%) [3]; no binding (tested: below 20%) [4]. B4: no binding (tested: below 20%) [5].

B5: Refmab #4 (antibody, V domains shown)
VH: QVQLVQSGAEVKKPGESVKVSCKASGYTFTNYGMNWVKQAPGQGLEWMGWINTYTGEPTYADKFQGRVTMTTDTSTSTAYMEIRNLGGDDTAVYYCARWSWSDGYYVYFDYWGQGTSVTVSS
VL: DIVMTQSPDSLTVSLGERTTINCKSSQSVLDSSTNKNSLAWYQQKPGQPPKLLLSWASTRESGIPDRFSGSGSGTDFTLTIDSPQPEDSATYYCQQSAHFPITFGQGTRLEIK
notes: The alanine scan used IgG or Fab
In the case of B5, the “Mean % WT Binding” value [6] is reported as 95 % WT binding, the “Mean % WT Binding” value [7] is reported as 107 % WT binding and the “Mean % WT Binding” value [8] is reported as 112 % WT binding. For the same binder, the “Mean % WT Binding” value [9] was 97.8 % WT binding, the “Mean % WT Binding” value [10] was 80 % WT binding and the “Mean % WT Binding” value [11] was 111 % WT binding. The “Mean % WT Binding” value [12] was 106 % WT binding, the “Mean % WT Binding” value [13] was 104 % WT binding and the “Mean % WT Binding” value [14] was 97.5 % WT binding. The “Mean % WT Binding” value [15] was 106 % WT binding, the “Mean % WT Binding” value [16] was 100 % WT binding and the “Mean % WT Binding” value [17] was 113 % WT binding. The “Mean % WT Binding” value [18] was 101 % WT binding, the “Mean % WT Binding” value [19] was 111 % WT binding and the “Mean % WT Binding” value [20] was 79.3 % WT binding. For the same binder, the “Mean % WT Binding” value [21] was 99.9 % WT binding.

B6: Refmab #4 (antibody, human IgG1, V domains shown)
VH: QVQLVQSGAEVKKPGESVKVSCKASGYTFTNYGMNWVKQAPGQGLEWMGWINTYTGEPTYADKFQGRVTMTTDTSTSTAYMEIRNLGGDDTAVYYCARWSWSDGYYVYFDYWGQGTSVTVSS
VL: DIVMTQSPDSLTVSLGERTTINCKSSQSVLDSSTNKNSLAWYQQKPGQPPKLLLSWASTRESGIPDRFSGSGSGTDFTLTIDSPQPEDSATYYCQQSAHFPITFGQGTRLEIK
notes: as for B1
For B6, the “Mean % WT Binding” value [1] was 95 % WT binding.

B7: Refmab #3 (antibody, human IgG1, V domains shown)
VH: QVQLVQSGAEVKKPGSSVKVSCKASGYTFTDYNMHWVRQAPGQGLEWIGYIYPYNGGTGYNQKFKSKATITADESTNTAYMELSSLRSEDTAVYYCARGRPAMDYWGQGTLVTVSS
VL: DIQMTQSPSSLSASVGDRVTITCRASESVDNYGISFMNWFQQKPGKAPKLLIYAASNQGSGVPSRFSGSGSGTDFTLTISSLQPDDFATYYCQQSKEVPWTFGQGTKVEIK
notes: as for B1
For B7, the “Mean % WT Binding” value [1] was 97.8 % WT binding.

B8: Refmab #3 (antibody, human IgG1, V domains shown)
VH: QVQLVQSGAEVKKPGSSVKVSCKASGYTFTDYNMHWVRQAPGQGLEWIGYIYPYNGGTGYNQKFKSKATITADESTNTAYMELSSLRSEDTAVYYCARGRPAMDYWGQGTLVTVSS
VL: DIQMTQSPSSLSASVGDRVTITCRASESVDNYGISFMNWFQQKPGKAPKLLIYAASNQGSGVPSRFSGSGSGTDFTLTISSLQPDDFATYYCQQSKEVPWTFGQGTKVEIK
B8: no binding (tested: below 20%) [2]; no binding (tested: below 20%) [3]; no binding (tested: below 20%) [4]. B8: no binding (tested: below 20%) [5].
